The results in this text go back to patent WO2013091903A1 (dated 2013).

Assay [1] deals with T1, Peptide 1455 (part of the second extracellular loop of human ORAI1) (human).
T1 peptide: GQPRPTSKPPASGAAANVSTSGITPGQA
Nature of the assay: direct peptide ELISA, peptide coated at 1 ug/ml; (+) indicates binding was detected.

For assay [2], the target named is T2, Peptide 1415 (entire second extracellular loop of human ORAI1) (human).
T2 peptide: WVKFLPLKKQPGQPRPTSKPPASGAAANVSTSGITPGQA
The assay is described as above.

Assay [3] concerns the target T3, Peptide 1454 (part of the second extracellular loop of human ORAI1) (human).
T3 peptide: PASGAAANVSTSGITPGQA
Nature of the assay: direct peptide ELISA, peptide coated at 1 ug/ml; (-) indicates binding could not be detected. On the technique in general: In an ELISA, binding on a coated surface is turned into a signal by an enzyme label.

For assay [4], the target named is human ORAI1 (CRAC channel membrane protein 1) (human, UniProt Q96D31 1-301). Nature of the assay: cell-based or functional assay.
Sequence of human ORAI1 (CRAC channel membrane protein 1) (Q96D31 whole entry, form in doubt): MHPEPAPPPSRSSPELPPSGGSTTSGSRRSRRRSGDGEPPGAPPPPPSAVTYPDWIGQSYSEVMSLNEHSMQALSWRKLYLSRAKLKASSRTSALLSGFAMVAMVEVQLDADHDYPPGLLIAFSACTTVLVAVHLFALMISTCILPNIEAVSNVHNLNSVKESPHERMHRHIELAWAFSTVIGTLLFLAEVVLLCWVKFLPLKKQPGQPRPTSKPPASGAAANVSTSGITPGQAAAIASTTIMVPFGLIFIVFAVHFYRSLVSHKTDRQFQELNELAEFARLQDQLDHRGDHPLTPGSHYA

B1: M-hCRAC1415-15F3A6 (antibody, IgG1, V domains shown)
VH: QVQLQQSGAELVRPGSSVKISCKASGYAFSSYWMNWVKQRPGQGLEWIGHIYPGDADTNYNGKFKGKATLTADKSSSTAYMHLSSLTSEDSAVYFCSRQLGFRYAMDYWGQGTSVTVSS
VL: DIVMSQSPSSLAVSAGEKVTMSCKSSQSLLNSRTRKNYLAWYQQKPGQSPKLLIYWASTRESGVPDRFTGSGSGTDFTLTISSVQAEDLAVYYCKQSYNLRTFGGGTKLEIKR
notes: same variable domains as 17F6A2
On to B1, for which the binding result was “binds” in assay [1], “binds” in assay [2] and “no binding” in assay [3].

B2: M-hCRAC1415-17F6A2 (antibody, mouse IgG1, V domains shown)
VH: QVQLQQSGAELVRPGSSVKISCKASGYAFSSYWMNWVKQRPGQGLEWIGHIYPGDADTNYNGKFKGKATLTADKSSSTAYMHLSSLTSEDSAVYFCSRQLGFRYAMDYWGQGTSVTVSS
VL: DIVMSQSPSSLAVSAGEKVTMSCKSSQSLLNSRTRKNYLAWYQQKPGQSPKLLIYWASTRESGVPDRFTGSGSGTDFTLTISSVQAEDLAVYYCKQSYNLRTFGGGTKLEIKR
notes: Mouse monoclonal, kappa light chain; also called Anti-M-CRAC1415-17F6A2
Turning to B2, the results for the binding result in assay [1], in assay [2] and in assay [3] were “binds”, “binds” and “no binding”, respectively.

B3: M-hCRAC1415-15F45A1 (antibody, IgG1, V domains shown)
VH: QVQLQQSGAELVRPGSSVKISCKASGYAFSSYWMNWVKQRPGQGLEWIGHIYPGDADTNYNGKFKGKATLTADKSSSTAYMHLSSLTSEDSAVYFCSRQLGFRYAMDYWGQGTSVTVSS
VL: DIVMSQSPSSLAVSAGEKVTMSCKSSQSLLNSRTRKNYLAWYQQKPGQSPKLLIYWASTRESGVPDRFTGSGSGTDFTLTISSVQAEDLAVYYCKQSYNLRTFGGGTKLEIKR
notes: as for B1
Take B3: the binding result in assay [1] is “binds”; in assay [2], “binds”; in assay [3], “no binding”.

B4: M-hCRAC1415-17F1A4B6 (antibody, IgG1, V domains shown)
VH: QVQLQQSGAELVRPGSSVKISCKASGYAFSSYWMNWVKQRPGQGLEWIGHIYPGDADTNYNGKFKGKATLTADKSSSTAYMHLSSLTSEDSAVYFCSRQLGFRYAMDYWGQGTSVTVSS
VL: DIVMSQSPSSLAVSAGEKVTMSCKSSQSLLNSRTRKNYLAWYQQKPGQSPKLLIYWASTRESGVPDRFTGSGSGTDFTLTISSVQAEDLAVYYCKQSYNLRTFGGGTKLEIKR
notes: as for B1
In the case of B4, the binding result in assay [1] was “binds”; in assay [2], “binds”; in assay [3], “no binding”.

B5: M-hCRAC1415-14F74A1 (antibody, mouse IgG1, V domains shown)
VH: QVQLQQSGAELVRPGSSVKISCKASGYAFSSYWMNWVKQRPGQGLEWIGHIYPGDGDTNYNGKFKGKATLTADKSSSTAYMQLSGLTSEDSAVYFCARSGRLRFAMDYWGQGTSVTVSS
VL: DIVMSQSPSSLAVSAGEKVTMSCKSSQSLLNSRTRKNYLAWYQQKPGQSPKLLIYWASTRESGVPDRFTGSGSGTDFTLTISSVQAEDLAVYYCKQSYNLRTFGGGTKLEIQR
notes: Mouse monoclonal, kappa light chain; also called Anti-M-CRAC1415-14F74A1
For B5, the binding result in assay [1] is listed as “binds”; in assay [2], “binds”; in assay [3], “no binding”.

B6: anti-M-CRAC1415-10F8 A2B6C1 (antibody, IgG1, V domains shown)
VH: QVQLQQSGAELVRPGSSVKISCKASGYAFRSYWMNWVKQRPGQGLEWIGHIYPGDGDTNYNGKFKGKATLTADKSSSTAYMQLSSLTSEDSAVYLCGRGGTTVVVDYWGQGTTLTVSS
VL: DIVMSQSPSSLAVSAGEKVTMSCKSSQSLLNSRTRKNYLAWYQQKPGQSPKLLIYWASTRESGVPDRFTGSGSGTDFTLTISSVQAEDLAVYYCKQSYNLPWTFGGGTKLEIKR
As for B6, the “IC50 of inhibition of PBMC (T cell) proliferation, anti-CD3/CD28 stimulation” value in assay [4] was found to be 1 µg/mL.
